Data on one substance can be found in patent US20240132604A1.

The target in the assay is CHO-hCCR8 (human) (UniProt P51685). As to the kind of experiment: FACS binding, CHO-K1 cells overexpressing human CCR8. On the technique in general: Flow cytometry measures light scatter and fluorescence of single cells or particles in a stream.
Sequence of UniProt P51685 (P51685 whole entry): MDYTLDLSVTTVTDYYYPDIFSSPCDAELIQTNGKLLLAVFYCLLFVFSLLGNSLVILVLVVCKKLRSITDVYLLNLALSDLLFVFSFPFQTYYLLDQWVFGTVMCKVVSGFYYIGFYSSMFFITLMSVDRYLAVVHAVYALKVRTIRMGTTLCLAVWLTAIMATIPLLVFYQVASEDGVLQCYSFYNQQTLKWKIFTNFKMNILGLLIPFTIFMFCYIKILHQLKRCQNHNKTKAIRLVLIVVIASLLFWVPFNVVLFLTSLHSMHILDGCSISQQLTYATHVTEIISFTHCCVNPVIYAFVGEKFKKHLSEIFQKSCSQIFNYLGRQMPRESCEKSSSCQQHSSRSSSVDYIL

One may read the EC50 as the midpoint of the concentration-response curve. GS-1811 registered a 50% effective concentration (EC50) of 0.658 nM.
